The values that follow come from the supplement of paper PMC9112550, “Optimization of the antimicrobial peptide Bac7 by deep mutational scanning” (BMC Biology, 2022).

This data set concerns Escherichia coli TOP10. The experiment in a line: shrunken log2 fold change of peptide-encoding DNA abundance (4.5 h post-induction vs induction); higher = less antimicrobial activity (less host growth inhibition). To be noted: time post-induction: 4.5 h; library: site-saturation at positions 5, 18, 19, 20.
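Note: peptides expressed intracellularly from a pBAD plasmid library in pooled LB shake-flask culture, induced with 0.3% L-arabinose, DNA abundance read by NGS, three biological replicates, DESeq2 with apeglm shrinkage.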

Take RRIRKRPPRLPRPRPRPHIKPRP: the “shrunken log2 fold change” value is -0.0411.

Consider RRIRCRPPRLPRPRPRPLGWPRP, for which the “shrunken log2 fold change” value was 0.506.

Turning to RRIRDRPPRLPRPRPRPASCPRP, the “shrunken log2 fold change” value amounted to 0.0585.

Take RRIRNRPPRLPRPRPRPISKPRP: the “shrunken log2 fold change” value is -0.472.

Take RRIRGRPPRLPRPRPRPIEIPRP: the “shrunken log2 fold change” value was -0.0543.

On to RRIRFRPPRLPRPRPRPKNWPRP, for which the “shrunken log2 fold change” value worked out at 0.31.

As for RRIRERPPRLPRPRPRPTIVPRP, the “shrunken log2 fold change” value was determined as 0.03.

As for RRIRVRPPRLPRPRPRPQWEPRP, the “shrunken log2 fold change” value is 0.0101.

RRIRRRPPRLPRPRPRPWGYPRP: the “shrunken log2 fold change” value is -0.275.

In the case of RRIRCRPPRLPRPRPRPLQLPRP, the “shrunken log2 fold change” value is -0.546.

Take RRIRMRPPRLPRPRPRPHYNPRP: the “shrunken log2 fold change” value was -0.467.

Regarding RRIRRRPPRLPRPRPRPYRFPRP, the “shrunken log2 fold change” value was -0.15.

Turning to RRIRQRPPRLPRPRPRPYYEPRP, the “shrunken log2 fold change” value was -0.172.

Take RRIRGRPPRLPRPRPRPGKYPRP: the “shrunken log2 fold change” value was -0.265.

In the case of RRIRSRPPRLPRPRPRPGHPPRP, the “shrunken log2 fold change” value turned out to be 0.0456.

As to RRIRMRPPRLPRPRPRPLWGPRP, the “shrunken log2 fold change” value worked out at 0.119.

Consider RRIRNRPPRLPRPRPRPHAVPRP, for which the “shrunken log2 fold change” value amounted to 0.00516.

RRIRRRPPRLPRPRPRPRQIPRP: the “shrunken log2 fold change” value is 0.452.

In the case of RRIRRRPPRLPRPRPRPFNSPRP, the “shrunken log2 fold change” value stood at 0.0474.

In the case of RRIRVRPPRLPRPRPRPLYFPRP, the “shrunken log2 fold change” value is -0.53.

For RRIRERPPRLPRPRPRPQWRPRP, the “shrunken log2 fold change” value is -0.0529.

In the case of RRIRIRPPRLPRPRPRPTYNPRP, the “shrunken log2 fold change” value was -0.783.

Regarding RRIRCRPPRLPRPRPRPLMRPRP, the “shrunken log2 fold change” value was found to be 0.715.

In the case of RRIRMRPPRLPRPRPRPESAPRP, the “shrunken log2 fold change” value was determined as 2.73.

As for RRIRRRPPRLPRPRPRPDVTPRP, the “shrunken log2 fold change” value was -0.0312.

As for RRIRWRPPRLPRPRPRPIRVPRP, the “shrunken log2 fold change” value stood at 0.0983.

With RRIRHRPPRLPRPRPRPNTEPRP, the “shrunken log2 fold change” value is -0.038.

Take RRIRVRPPRLPRPRPRPQGMPRP: the “shrunken log2 fold change” value is -1.02.

Turning to RRIRNRPPRLPRPRPRPWMQPRP, the “shrunken log2 fold change” value was -0.218.

With RRIRDRPPRLPRPRPRPWMYPRP, the “shrunken log2 fold change” value is -0.267.

In the case of RRIRTRPPRLPRPRPRPMRRPRP, the “shrunken log2 fold change” value worked out at 0.00555.

Turning to RRIRWRPPRLPRPRPRPIGVPRP, the “shrunken log2 fold change” value worked out at 0.0389.

As for RRIRSRPPRLPRPRPRPEFIPRP, the “shrunken log2 fold change” value was found to be 0.162.

In the case of RRIRRRPPRLPRPRPRPTTPPRP, the “shrunken log2 fold change” value is 0.463.

As to RRIRPRPPRLPRPRPRPYLYPRP, the “shrunken log2 fold change” value is -0.672.

With RRIRWRPPRLPRPRPRPGQSPRP, the “shrunken log2 fold change” value was found to be 0.572.

For the sequence RRIRDRPPRLPRPRPRPIKAPRP, the “shrunken log2 fold change” value was -0.149.

Regarding RRIRPRPPRLPRPRPRPFTYPRP, the “shrunken log2 fold change” value is -0.0519.

On to RRIRDRPPRLPRPRPRPHHQPRP, for which the “shrunken log2 fold change” value is -0.0302.

In the case of RRIRMRPPRLPRPRPRPRCIPRP, the “shrunken log2 fold change” value is -0.0309.

On to RRIRKRPPRLPRPRPRPTYNPRP, for which the “shrunken log2 fold change” value was -0.0201.

For RRIRYRPPRLPRPRPRPTILPRP, the “shrunken log2 fold change” value is -0.521.

RRIRPRPPRLPRPRPRPAMQPRP: the “shrunken log2 fold change” value turned out to be 0.11.

Turning to RRIRTRPPRLPRPRPRPPYGPRP, the “shrunken log2 fold change” value is -0.195.

With RRIRERPPRLPRPRPRPIWIPRP, the “shrunken log2 fold change” value is -0.222.

As for RRIRNRPPRLPRPRPRPLYGPRP, the “shrunken log2 fold change” value is -0.171.

As to RRIRNRPPRLPRPRPRPCGYPRP, the “shrunken log2 fold change” value was determined as 0.019.

As for RRIRWRPPRLPRPRPRPFVWPRP, the “shrunken log2 fold change” value was 0.128.

For RRIRLRPPRLPRPRPRPHINPRP, the “shrunken log2 fold change” value was -0.645.

As for RRIRRRPPRLPRPRPRPYFIPRP, the “shrunken log2 fold change” value was -0.432.

Turning to RRIRPRPPRLPRPRPRPTYLPRP, the “shrunken log2 fold change” value is -0.113.

Regarding RRIRNRPPRLPRPRPRPVVRPRP, the “shrunken log2 fold change” value came out at 0.12.

For the sequence RRIRYRPPRLPRPRPRPHTYPRP, the “shrunken log2 fold change” value was -0.189.

RRIRFRPPRLPRPRPRPMNYPRP: the “shrunken log2 fold change” value was -0.582.

RRIRVRPPRLPRPRPRPQLMPRP: the “shrunken log2 fold change” value is -0.224.

With RRIRTRPPRLPRPRPRPGAHPRP, the “shrunken log2 fold change” value came out at 0.0457.

On to RRIRKRPPRLPRPRPRPYHMPRP, for which the “shrunken log2 fold change” value is -0.0573.

RRIRFRPPRLPRPRPRPHASPRP: the “shrunken log2 fold change” value was -0.259.

In the case of RRIRVRPPRLPRPRPRPKQCPRP, the “shrunken log2 fold change” value is -0.141.

For RRIRVRPPRLPRPRPRPSKNPRP, the “shrunken log2 fold change” value is -0.364.

With RRIRKRPPRLPRPRPRPTCMPRP, the “shrunken log2 fold change” value is 0.576.

As to RRIRLRPPRLPRPRPRPFFNPRP, the “shrunken log2 fold change” value was -0.359.

As for RRIRLRPPRLPRPRPRPIMFPRP, the “shrunken log2 fold change” value is -0.488.

As for RRIRFRPPRLPRPRPRPPEAPRP, the “shrunken log2 fold change” value stood at 0.232.

For RRIRYRPPRLPRPRPRPAVGPRP, the “shrunken log2 fold change” value was 0.0398.

With RRIRKRPPRLPRPRPRPNLRPRP, the “shrunken log2 fold change” value turned out to be 0.211.

With RRIRRRPPRLPRPRPRPGVLPRP, the “shrunken log2 fold change” value was 0.465.

Turning to RRIRERPPRLPRPRPRPREYPRP, the “shrunken log2 fold change” value was -0.242.

For RRIRLRPPRLPRPRPRPGIQPRP, the “shrunken log2 fold change” value is -0.0773.

Turning to RRIRLRPPRLPRPRPRPRHFPRP, the “shrunken log2 fold change” value is -0.131.

In the case of RRIRSRPPRLPRPRPRPPTWPRP, the “shrunken log2 fold change” value was 0.326.

RRIRNRPPRLPRPRPRPQNTPRP: the “shrunken log2 fold change” value is -0.589.

As to RRIRPRPPRLPRPRPRPLKRPRP, the “shrunken log2 fold change” value was -0.161.

Consider RRIRYRPPRLPRPRPRPNNTPRP, for which the “shrunken log2 fold change” value was -1.32.

On to RRIRKRPPRLPRPRPRPIGEPRP, for which the “shrunken log2 fold change” value is -0.0126.

On to RRIRYRPPRLPRPRPRPRIAPRP, for which the “shrunken log2 fold change” value worked out at 0.00898.

RRIRPRPPRLPRPRPRPHVGPRP: the “shrunken log2 fold change” value was -0.0279.

Take RRIRGRPPRLPRPRPRPICTPRP: the “shrunken log2 fold change” value turned out to be 1.08.

Regarding RRIRQRPPRLPRPRPRPVGKPRP, the “shrunken log2 fold change” value is -0.14.

As for RRIRVRPPRLPRPRPRPEHNPRP, the “shrunken log2 fold change” value is -0.244.

Consider RRIRCRPPRLPRPRPRPFSAPRP, for which the “shrunken log2 fold change” value is -0.565.

With RRIRARPPRLPRPRPRPRPLPRP, the “shrunken log2 fold change” value was 0.707.

Turning to RRIRHRPPRLPRPRPRPDTRPRP, the “shrunken log2 fold change” value is -0.0709.

RRIRWRPPRLPRPRPRPVWNPRP: the “shrunken log2 fold change” value was -0.232.

Take RRIRERPPRLPRPRPRPIKGPRP: the “shrunken log2 fold change” value is -0.0123.

Regarding RRIRPRPPRLPRPRPRPTAEPRP, the “shrunken log2 fold change” value was 0.595.

In the case of RRIRDRPPRLPRPRPRPRIAPRP, the “shrunken log2 fold change” value stood at 0.114.

Turning to RRIRVRPPRLPRPRPRPSGGPRP, the “shrunken log2 fold change” value came out at 0.104.

For RRIRDRPPRLPRPRPRPACFPRP, the “shrunken log2 fold change” value is 0.664.

On to RRIRGRPPRLPRPRPRPCQRPRP, for which the “shrunken log2 fold change” value was 0.014.

As to RRIRWRPPRLPRPRPRPGVRPRP, the “shrunken log2 fold change” value came out at 0.304.

RRIRNRPPRLPRPRPRPEPQPRP: the “shrunken log2 fold change” value was determined as 1.

For the sequence RRIRYRPPRLPRPRPRPVTNPRP, the “shrunken log2 fold change” value is -0.015.

For the sequence RRIRKRPPRLPRPRPRPDHNPRP, the “shrunken log2 fold change” value is -0.276.

As to RRIRWRPPRLPRPRPRPSGIPRP, the “shrunken log2 fold change” value is 0.146.

Turning to RRIRNRPPRLPRPRPRPDHRPRP, the “shrunken log2 fold change” value is -0.0124.

With RRIRFRPPRLPRPRPRPKKSPRP, the “shrunken log2 fold change” value turned out to be 0.158.

In the case of RRIRHRPPRLPRPRPRPFPVPRP, the “shrunken log2 fold change” value stood at 0.0399.

Take RRIRPRPPRLPRPRPRPDGEPRP: the “shrunken log2 fold change” value was determined as 0.0766.

For the sequence RRIRTRPPRLPRPRPRPNKGPRP, the “shrunken log2 fold change” value was -0.28.

With RRIRYRPPRLPRPRPRPAHNPRP, the “shrunken log2 fold change” value was -0.409.

As to RRIRVRPPRLPRPRPRPMSRPRP, the “shrunken log2 fold change” value was determined as 0.0217.

Consider RRIRRRPPRLPRPRPRPWWCPRP, for which the “shrunken log2 fold change” value amounted to 4.82.

Regarding RRIRVRPPRLPRPRPRPFMLPRP, the “shrunken log2 fold change” value is -0.279.

For the sequence RRIRRRPPRLPRPRPRPSQWPRP, the “shrunken log2 fold change” value came to 0.264.

Regarding RRIRPRPPRLPRPRPRPSAHPRP, the “shrunken log2 fold change” value is -0.167.

In the case of RRIRDRPPRLPRPRPRPKDLPRP, the “shrunken log2 fold change” value was -0.0191.

Consider RRIRHRPPRLPRPRPRPEVIPRP, for which the “shrunken log2 fold change” value is 0.0357.

With RRIRARPPRLPRPRPRPQVNPRP, the “shrunken log2 fold change” value was -0.196.

As for RRIRFRPPRLPRPRPRPNCSPRP, the “shrunken log2 fold change” value is -0.498.

As for RRIRARPPRLPRPRPRPEHRPRP, the “shrunken log2 fold change” value is 0.0198.

For RRIRNRPPRLPRPRPRPWTSPRP, the “shrunken log2 fold change” value worked out at 0.0238.

For the sequence RRIRHRPPRLPRPRPRPRQLPRP, the “shrunken log2 fold change” value was determined as 0.0862.

Take RRIRYRPPRLPRPRPRPHDNPRP: the “shrunken log2 fold change” value was -1.04.

RRIRLRPPRLPRPRPRPCAWPRP: the “shrunken log2 fold change” value was -0.005.

Consider RRIRTRPPRLPRPRPRPYLQPRP, for which the “shrunken log2 fold change” value was -0.525.

As to RRIRMRPPRLPRPRPRPFWEPRP, the “shrunken log2 fold change” value stood at 0.0748.

Turning to RRIRFRPPRLPRPRPRPMHNPRP, the “shrunken log2 fold change” value was -0.52.

With RRIRIRPPRLPRPRPRPMKGPRP, the “shrunken log2 fold change” value was -0.0335.

Turning to RRIRFRPPRLPRPRPRPMMQPRP, the “shrunken log2 fold change” value was -0.297.

As to RRIRCRPPRLPRPRPRPTHSPRP, the “shrunken log2 fold change” value was found to be 0.288.

Turning to RRIRNRPPRLPRPRPRPQYTPRP, the “shrunken log2 fold change” value is -0.737.

For the sequence RRIRVRPPRLPRPRPRPVILPRP, the “shrunken log2 fold change” value is -0.248.

Take RRIRCRPPRLPRPRPRPYYDPRP: the “shrunken log2 fold change” value was -0.361.

On to RRIRARPPRLPRPRPRPCVYPRP, for which the “shrunken log2 fold change” value turned out to be 0.121.
